We go through one variant from IntAct's records for PubMed 20802513.

The chains are these.
B1: Focal adhesion kinase 1 (Gallus gallus (Chicken)), Q00944 (parent)
chain: MAAAYLDPNLNHTPSSSAKTHLGTGMERSPGAMERVLKVFHYFENSSEPTTWASIIRHGDATDVRGIIQKIVDCHKVKNVACYGLRLSHLQSEEVHWLHLDMGVSNVREKFELAHPPEEWKYELRIRYLPKGFLNQFTEDKPTLNFFYQQVKNDYMLEIADQVDQEIALKLGCLEIRRSYGEMRGNALEKKSNYEVLEKDVGLRRFFPKSLLDSVKAKTLRKLIQQTFRQFANLNREESILKFFEILSPVYRFDKECFKCALGSSWIISVELAIGPEEGISYLTDKGANPTHLADFNQVQTIQYSNSEDKDRKGMLQLKIAGAPEPLTVTAPSLTIAENMADLIDGYCRLVNGATQSFIIRPQKEGERALPSIPKLANNEKQGVRSHTVSVSETDDYAEIIDEEDTYTMPSTRDYEIQRERIELGRCIGEGQFGDVHQGIYMSPENPAMAVAIKTCKNCTSDSVREKFLQEALTMRQFDHPHIVKLIGVITENPVWIIMELCTLGELRSFLQVRKFSLDLASLILYAYQLSTALAYLESKRFVHRDIAARNVLVSATDCVKLGDFGLSRYMEDSTYYKASKGKLPIKWMAPESINFRRFTSASDVWMFGVCMWEILMHGVKPFQGVKNNDVIGRIENGERLPMPPNCPPTLYSLMTKCWAYDPSRRPRFTELKAQLSTILEEEKLQQEERMRMESRRQVTVSWDSGGSDEAPPKPSRPGYPSPRSSEGFYPSPQHMVQPNHYQVSGYSGSHGIPAMAGSIYPGQASLLDQTDSWNHRPQEVSAWQPNMEDSGTLDVRGMGQVLPTHLMEERLIRQQQEMEEDQRWLEKEERFLVMKPDVRLSRGSIEREDGGLQGPAGNQHIYQPVGKPDHAAPPKKPPRPGAPHLGSLASLNSPVDSYNEGVKIKPQEISPPPTANLDRSNDKVYENVTGLVKAVIEMSSKIQPAPPEEYVPMVKEVGLALRTLLATVDESLPVLPASTHREIEMAQKLLNSDLAELINKMKLAQQYVMTSLQQEYKKQMLTAAHALAVDAKNLLDVIDQARLKMISQSRPH

Variants of B1 are the subject of the assay. The conditions noted are these: with pgfrb_human PDGFRB.
Turning to Y5F;Y194F, the “effect of a mutation on the interaction” value was “disrupting interaction”.
